Data: the nanobody polyreactivity screen of Harvey et al. (2022)

experiment: yeast display, Sf9 membrane polyspecificity reagent, FACS + sequencing; frameworks hold sequencing errors
Summary of the method: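 Using colony PCR, genes from sorted yeast display clones were amplified, then sequenced on MiSeq at 2 × 250 and filtered by CDR length. The clones had been stained with 10% biotinylated, detergent-solubilized Sf9 membrane reagent for 1 hour at 4 °C and sorted by FACS into low and high (top ~1%) gates on anti-HA and streptavidin fluorescence. Polyreactivity labels come from the gate of origin.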

Row | Sequence | polyreactivity (PSR sort gate)
1 | QVQLVESGGGLVQAGGSLRLSCAASGRIFVGNAMGRYRQAPGKERELVAAISRSGGRTYYADSVKGRFTISRDNAKNTVYLQMNSLKPEDTAVYYCNTRVYAGKYDYWGQGTQVTVSS | high polyreactivity
2 | QVQLVESGGGLVQAGGSLRLSCAASGRIFVGNTMGWYRQAPGKERELVAAISWRGRTSYADSVKGRFTISRDNAKNTVYLQMNSLKPEDTAVYYCNAEHAGATRYYYIANWMDYWGQGTQVTVSS | low polyreactivity
3 | QVQLVESGGGLVQAGGSLRLSCAASGRIFVGYAMGWYRQAPGKEREFVAAITIGGTDTYYADSVKGRFTISRDNAKNTVYLQMNSLKPEDTAVYYCNADLLYPYDFDYWGQGTQVTVSS | low polyreactivity
4 | QVQLVESGGGLVQAGGSLRLSCAASGRIFVGYAMGWYRQAPGKERELVAAINRSGSSTYYADSVKGRFTISRDNAKNTVYLQMNSLKPEDTAVYYCNARSGNRYGPRYDYWGQGTQVTVSS | high polyreactivity
5 | QVQLVESGGGLVQAGGSLRLSCAASGRIFVGYAMGWYRQAPGKERELVAAISSDGGSTYYADSVKGRFTISRDNAKNTVYLQMNSLKPEDSAVYYCNAYYGRFPYYADDYWGQGTQVTVSS | low polyreactivity
6 | QVQLVESGGGLVQAGGSLRLSCAASGRIFVGYAMGWYRQAPGKERELVAAITGSGGGTYYADSVKGRFTISRDNAKNTVYLQMNSLKPEDTAVYYCAATGYLKVRGYYAWHFYYWGQGTQVTVSS | high polyreactivity
7 | QVQLVESGGGLVQAGGSLRLSCAASGRIFVGYAMGWYRQAPGKERELVAAITKSGGRTYYADSVKGRFTISRDNAKNTVYLQMNSLKPEDTAVYFCAKYLGRQHEKDLGGMNYWGQGTQLTVSS | high polyreactivity
8 | QVQLVESGGGLVQAGGSLRLSCAASGRIFVGYAMGWYRQAPGKERELVAAITKSGGRTYYADSVKGRFTISRDNAKNTVYLQMNSLKPEDTAVYYCAVLNSKWNEYDYWGQGNQVTVSS | high polyreactivity
9 | QVQLVESGGGLVQAGGSLRLSCAASGRIFVGYGMGWYRQAPGKERELVASIDTGGSTYYADSVKGRFTISRDNAKNTVYLQMNSLKPDDTAVYYCAADYQSYTSLTGYHNSEGDPWGQGTQVTVSS | low polyreactivity
10 | QVQLVESGGGLVQAGGSLRLSCAASGRIFVHNAMGWSRQAPGKERELVAAISSGGSTYYADSVKGRFTISRDNAKNTVYLQMNSLKPEDTAVYYCAIYAYYNKYDYWGQGTQVTVSS | high polyreactivity
11 | QVQLVESGGGLVQAGGSLRLSCAASGRIFVHYAMGWYRQAPGKERELVAAITSGSSTNYADSVKGRFTISRDNAKNTVYLQMNSLKPEDTAVYYCAADYSVHMVRDRWFDYWGQGTQVTVSS | low polyreactivity
12 | QVQLVESGGGLVQAGGSLRLSCAASGRIFVIYAMGWNRQAPGKERELVASITDGTITNYADSVKGRFTISRDNAKNTVYLQMNSLKPEDTAVYYCAAGTQAHAYVVRPIEMDYWGQGTQVTVSS | low polyreactivity
13 | QVQLVESGGGLVQAGGSLRLSCAASGRIFVIYGMGWYRQAPGKERELVAAIRWTGGSTYFADSVKGRFTISRDNAKNTVYLQMNSLKPEDTAVYYCNAGSDRAIWPTHDYWGQGTQVTVSS | low polyreactivity
14 | QVQLVESGGGLVQAGGSLRLSCAASGRIFVIYGMGWYRQAPGKERELVATISWSGSSTSYADSVKGRFTISRDNAKNTVYLQMNSLKPEDTAVYYCAAYTWYSRHRMNYWGQGTQVTVSS | high polyreactivity
15 | QVQLVESGGGLVQAGGSLRLSCAASGRIFVKNAMGWYRQAPGKERELVATISSGGNTNYADSVKGRFTISRDNAKNTVYLQMNSLKPEDTAVYYCAAVWDLGDYELPYDYWGQGTQVTVSS | low polyreactivity
16 | QVQLVESGGGLVQAGGSLRLSCAASGRIFVKYAMGWYRQAPGKERELVAAITNSGGRTYYAASVKGRFTISRDNAKNTVYLQMNSLKPEDTAVYYCAALYHASTRQMDYWGQGTQVTVSS | high polyreactivity
17 | QVQLVESGGGLVQAGGSLRLSCAASGRIFVKYAMGWYRQEPGKERELVAAIRWSVGSTYYADSVKGRFTISRDNAKNTVYLLMNSLKPEDTAVYYCAAQPVRKLYWGQGTQVTVSS | high polyreactivity
18 | QVQLVESGGGLVQAGGSLRLSCAASGRIFVKYVMGWYRQAPGKERELVAAISSSGGRTYYADSVKGRFTISRDNAKNTVYLPMNSLKPEDTAVYYCNAVRRRSSLKLDSWGQGTQVTVSS | high polyreactivity
19 | QVQLVESGGGLVQAGGSLRLSCAASGRIFVLYDMGWYRQAPGKERELVAGISGSGGRTYYADSVKGRFTISRDNAKNTVYLQMNSLKPEDTAVYYCNARGYYWYRPYVNSNGGYWGQGTQVTVSS | high polyreactivity
20 | QVQLVESGGGLVQAGGSLRLSCAASGRIFVNNAMGWYRQAPGKERELVAAISKRGGSTYYADSVKGRFTISRDNAKNSVYLQMNSLKPEDTAVYYSAATPVYSGPYDYWGQGTQVTVSS | high polyreactivity
21 | QVQLVESGGGLVQAGGSLRLSCAASGRIFVNYAMGWYRQAPVKERELVATITWSGGSTFYADSVKGRFTISRDNAKNTVYLQMNSLKPEDTAVYYCAQRGYVRSGLGRPYADDYWGQGTQLTVSS | low polyreactivity

Row | Sequence | polyreactivity (PSR sort gate)
22 | QVQLVESGGGLVQAGGSLRLSCAASGRIFVPNAMGWYRQAPGKERELVAAITSSGSSTYYADSVKGRFTISRDNAKNTVYLQMNSLKPEDTAVYYCNTLWGGFSWFRVDSWGQGTQVTVSS | high polyreactivity
23 | QVQLVESGGGLVQAGGSLRLSCAASGRIFVPYAMGWYRPAPGKERELVAAITWRGGRTYYADSVKGRFTISRDNAKNTVYLQMNSLKPEDTAVYYWAARGWTVTERYYWGQGTQVTVSS | high polyreactivity
24 | QVQLVESGGGLVQAGGSLRLSCAASGRIFVPYAMGWYRQAPGKERELVAAISWRGGSTNYADSVKGRFTISRDNAKNTVYLQMNSLKPEDTAVYYCAAVPVRYRYSYGYYYWGQGTQVTVSS | high polyreactivity
25 | QVQLVESGGGLVQAGGSLRLSCAASGRIFVPYVMGWYRQAPGKERELVASISDSDTSTYYADSVKGRFTISRDNAKNTVDLQMNSLKPEDTAVYYCNVDYWGQGTQVTVSS | low polyreactivity
26 | QVQLVESGGGLVQAGGSLRLSCAASGRIFVPYVMGWYRQAPGKERELVASISDSDTSTYYADSVKGRFTISRDNAKNTVYIQMNSLKPEDSAVYYCNVDYWGQGTQVTVSS | low polyreactivity
27 | QVQLVESGGGLVQAGGSLRLSCAASGRIFVQYAMGWYRQAPGKERELVAAISYSGGRTYYADSVKGRFTISRDNAKNTVYLQMNSLKPEDTAVYYCAAVRAGYYGYWGKGTQVTVSS | high polyreactivity
28 | QVQLVESGGGLVQAGGSLRLSCAASGRIFVQYDMGWYRQAHGKERELVAAITGGGGSTYYADSVKGRFTISRDNAKNTVYLQMNSLKPEDTAVYYCAADQDVYDFTGYDYWGQGTQVTVSS | low polyreactivity
29 | QVQLVESGGGLVQAGGSLRLSCAASGRIFVQYDMGWYRQAPGKERELVAAITGGGGSTYYADSVKGRFTISRDNAKNTVYLQMHSLKPEDTAVYYCAADQDVYDFTGYDYWGQGTQVTVSS | low polyreactivity
30 | QVQLVESGGGLVQAGGSLRLSCAASGRIFVRNAMGWYRQAPGKEREFVAAISRSGGSTYYAYSVKGRFTISRDNAKNSVYLQMNSLKPEDTAVYYCAADYPKTYTSKFNYWGQGTQVTVSS | high polyreactivity
31 | QVQLVESGGGLVQAGGSLRLSCAASGRIFVRNAMGWYRQAPGKERELVAAITRTGASTYYADSVKGRFTISRDNAKNTVYLQMNSLKPDDTAVYYCAAVWGWPYWVYRYDYWGQGTQVTVSS | high polyreactivity
32 | QVQLVESGGGLVQAGGSLRLSCAASGRIFVRNAMGWYRQAPGKERELVAAITTGGRTYYADSVKGRFTISRDNAKNTVYVQMNSVKPEDTAVYYCAATGDRKGYKYIYSDTNDYWGQGTQVTVSS | low polyreactivity
33 | QVQLVESGGGLVQAGGSLRLSCAASGRIFVRNAMGWYRQAPGKERELVADITNGGSTNYADSVKGRFTISRDNAKNTVYLQMNSLNPEDTAVYYCAADTLGVYDGDYWGQGTQVTVSS | low polyreactivity
34 | QVQLVESGGGLVQAGGSLRLSCAASGRIFVRYAMGWYRPAPGKERELVATISSRGGSTYYADSVKGRFTISRDNAKNTVYLQMTSLKPEDTAVYYWAAYVYPWGRDYWGQGTQVTVSS | high polyreactivity
35 | QVQLVESGGGLVQAGGSLRLSCAASGRIFVRYAMGWYRQAPGKEREFVAAINYSGGSTYADSVKGRFTISRDNAKNSVFLQMIRLKPEDTAVYYCAADYQGITSSDPYDYWGQGTQVTVSS | low polyreactivity
36 | QVQLVESGGGLVQAGGSLRLSCAASGRIFVRYAMGWYRQAPGKERELVAAITTTGDSTYADSVKGRFTISRDNAKNTVYLQMNSLKPEDTAVYYCNAAWPESRFLVYHRYDYWGQGTQVTVSS | low polyreactivity
37 | QVQLVESGGGLVQAGGSLRLSCAASGRIFVRYTMGWYRQAPGKERELVAAINSGGRTYYADSVKGRFTISRDNAKNTVYLQMNSLKPEDTAVYYCAADRVYYGQRDYWGQGTQVTVSS | high polyreactivity
38 | QVQLVESGGGLVQAGGSLRLSCAASGRIFVTYAMGWYRQAPGKERELVAAITSRGGRTYYADSVKGRFTISRDNAKKTVYLQMNSLKPEDTAVYYCAAYPGPGARYYYWGQGTQVTVSS | high polyreactivity
39 | QVQLVESGGGLVQAGGSLRLSCAASGRIFVTYAMGWYRQAPGKERELVASISRSGGRTYYADSVKGRFTISRDNAKNTVYLQMNSLKPEDTAVYYCNADQEGYQQYFYLGSPYDYWGQGTQVTVSS | low polyreactivity
40 | QVQLVESGGGLVQAGGSLRLSCAASGRIFVTYAMGWYRQAPGTERELVAAINSSVSSTRYADSVKGRFTMSRDNAKNTVYLQMNSLKPEDTAVYYCAAVYRYVRPIAKDEYWGQGTQVTVSS | low polyreactivity
41 | QVQLVESGGGLVQAGGSLRLSCAASGRIFVTYGMGWYRQAPGKERELVAAINWRGGSTYYADSVKGRFTISRDNAKNTVYLQMNSLKPEDTAVYYCNARLYRNRLGYWGQGTQVTVSS | high polyreactivity
